Measured values reported in patent US20060270591A1, “Androgen receptor coregulators” (priority 2002, published 2006).

T1: ER (Homo sapiens, UniProt P03372)
T1 construct: expressed in transfected cells; host or cells: DU145
T1 sequence (P03372 1-595): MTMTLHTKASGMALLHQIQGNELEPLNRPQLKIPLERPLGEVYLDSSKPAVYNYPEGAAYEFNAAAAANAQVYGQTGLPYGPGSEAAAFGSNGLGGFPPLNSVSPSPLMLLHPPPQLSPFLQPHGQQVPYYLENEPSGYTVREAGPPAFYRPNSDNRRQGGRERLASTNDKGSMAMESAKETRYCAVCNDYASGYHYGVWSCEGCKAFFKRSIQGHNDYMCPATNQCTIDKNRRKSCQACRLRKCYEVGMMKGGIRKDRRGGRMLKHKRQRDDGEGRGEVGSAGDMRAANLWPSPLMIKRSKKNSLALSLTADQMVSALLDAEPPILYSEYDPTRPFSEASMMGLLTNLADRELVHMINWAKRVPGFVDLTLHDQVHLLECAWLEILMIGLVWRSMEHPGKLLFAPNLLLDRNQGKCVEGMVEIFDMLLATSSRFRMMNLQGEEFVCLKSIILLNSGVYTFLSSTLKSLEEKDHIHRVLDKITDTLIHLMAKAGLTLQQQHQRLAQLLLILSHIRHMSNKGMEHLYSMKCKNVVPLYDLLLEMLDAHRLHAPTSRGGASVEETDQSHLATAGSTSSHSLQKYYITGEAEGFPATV

T2: GR (Homo sapiens, UniProt P04150)
T2 sequence (P04150 1-777): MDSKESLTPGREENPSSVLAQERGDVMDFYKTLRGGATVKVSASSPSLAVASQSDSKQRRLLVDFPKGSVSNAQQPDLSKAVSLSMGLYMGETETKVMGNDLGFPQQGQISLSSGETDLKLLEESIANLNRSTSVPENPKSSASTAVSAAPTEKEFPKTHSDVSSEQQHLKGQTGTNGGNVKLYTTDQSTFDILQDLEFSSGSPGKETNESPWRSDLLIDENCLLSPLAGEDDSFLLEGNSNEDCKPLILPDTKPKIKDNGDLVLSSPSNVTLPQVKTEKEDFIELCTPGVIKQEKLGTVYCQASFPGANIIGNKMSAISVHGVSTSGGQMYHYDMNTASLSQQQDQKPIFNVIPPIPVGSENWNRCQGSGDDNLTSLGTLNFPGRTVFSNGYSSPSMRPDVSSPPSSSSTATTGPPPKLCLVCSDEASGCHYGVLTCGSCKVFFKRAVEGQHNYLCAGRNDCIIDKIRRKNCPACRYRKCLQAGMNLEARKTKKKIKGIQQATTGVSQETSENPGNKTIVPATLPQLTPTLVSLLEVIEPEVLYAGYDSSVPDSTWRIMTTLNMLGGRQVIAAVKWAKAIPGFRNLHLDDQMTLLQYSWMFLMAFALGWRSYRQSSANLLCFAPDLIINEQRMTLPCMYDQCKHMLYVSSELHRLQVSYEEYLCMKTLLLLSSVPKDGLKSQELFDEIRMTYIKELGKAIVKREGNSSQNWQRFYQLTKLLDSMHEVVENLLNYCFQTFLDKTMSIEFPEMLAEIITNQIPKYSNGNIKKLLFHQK


What was measured:
Type in all cases: cell-based
ER = molecular target: T1, ER; assay: ER transcription activity, ERE-CAT reporter (Example 1); details: DU145 cells
Experimental: (§1) 366. Human prostate cancer DU145 or PC3 cells, or human lung carcinoma cells NCI H1299 were grown in Dulbecco's minimal essential medium (DMEM) containing penicillin (25 U/ml), streptomycin (25˜g/ml), and 5% fetal calf serum (FCS). One hour before transfection, the medium was changed to DMEM with 5% charcoal-stripped FCS. Phenol red-free and serum-free media were used on the experiments employing E2 or TGF-β, respectively. A β-galactosidase expression plasmid, pCMV-β-gal, was used as an internal control for transfection efficiency.
(§2) 367. Cells were transfected using the calcium phosphate technique (Yeh, et al. Molec. Endocrinol. 8:77-88, 1994). The medium was changed 24 hr posttransfection and the cells treated with either steroid hormones or hydroxyflutamide, and cultured for an additional 24 hr. Cells were harvested and assayed for CAT activity after the cell lysates were normalized by using β-galactosidaseas an internal control. Chloramphenicol acetyltransferase (CA) activity was visualized by PhosphorImager (Molecular Dynamics) and quantitated by ImageQuant software (Molecular Dynamics).

GR [1] = molecular target: T2, GR; assay: GR transactivation reporter gene assay (Example 2); set-up: expressed in transfected cells; host or cells: PC-3
Experimental: 12. […] PC-3 (A) or DU145 (B) cells were transfected with MMTV-CAT (2.5 μg), steroid receptor expression plasmid (AR, PR, or GR; 1.0 μg for PC-3 and 0.75 μg for DU145), and pSG5-C′-ARA54 (C′) or pSG5-mt-ARA54 (mt) (8.0 μg for PC-3 and 6.75 μg for DU145), with (for DU145) or without (for PC-3) pSG5-fl-ARA54 (2.25 μg). The total amount of DNA was adjusted to 12.5-13.25 μg with pSG5 for each transfection. […] The CAT activity is presented relative to that of vector alone with cognate ligand in each panel (black bars; set as 100%). Values represent the mean±SD of at least three determinations.
394. The human prostate cancer cell lines, LNCaP, PC-3, and DU145, were maintained in Dulbecco's minimum essential medium (DMEM) containing 5% fetal calf serum (FCS). Transfections using the calcium phosphate precipitation method and chloramphenicol acetyltransferase (CAT) and luciferase (Luc) assays were performed as previously described (Miyamoto et al. (1998) Proc. Natl. Acad. Sci. U.S.A. 95, 7379-7384; Yeh et al. (1999) Endocrine 11, 195-202; Miyamoto et al. (1998) Proc. Natl. Acad. Sci. U.S.A. 95, 11083-11088). Briefly, 1-4×10^5 cells were plated on 35-mm or 60-mm dishes 24 h before adding the precipitation mix containing a CAT or Luc reporter gene and a β-galactosidase expression plasmid (pCMV-β-gal) as an internal control for normalization of transfection efficiency. The medium was changed to phenol-red-free DMEM with 5% charcoal-stripped FCS 1 h before transfection. In each experiment, the total amount of transfected DNA per dish was maintained as a constant by addition of empty expression vector (pSG5 or pVP16, as appropriate). […] The cells were then harvested and whole cell extracts were used for CAT or Luc assay. The CAT activity was quantitated with a PhosphorImager (Molecular Dynamics). The Luc assay was determined using a Dual-Luciferase Reporter Assay System (Promega) and luminometer.

GR [2] = molecular target: T2, GR; assay: GR transcription activity, MMTV-CAT reporter (Example 1); set-up: expressed in transfected cells; host or cells: DU145; details: DU145 cells
Experimental: as §1, §2

Molecule	effect on ER transcription activity (ER)	induction of GR transcription activity (GR [1]; DU145 cells, cotransfected with GR)	effect on GR transcription activity (GR [2])	effect on fl-ARA54-induced GR transactivation (GR [1]; DU145 cells)	effect on GR transactivation (GR [1]; PC-3 cell line)
ARA54: 54 kDa protein that interacts with AR in an androgen-dependent manner; AR coactivator (protein) MSSEDREAQEDELLALASIYDGDEFRKAESVQGGETRIYLDLPQNFKIFVSGNSNECLQNSGFEYTICFLPPLVLNFELPPDYPSSSPPSFTLSGKWLSPTQLSALCKHLDNLWEEHRGSVVLFAWMQFLKEETLAYLNIVSPFELKIGSQKKVQRRTAQASPNTELDFGGAAGSDVDQEEIVDERAVQDVESLSNLIQEILDFDQAQQIKCFNSKLFLCSICFCEKLGSECMYFLECRHVYCKACLKDYFEIQIRDGQVQCLNCPEPKCPSVATPGQVKELVEAELFARYDRLLLQSSLDLMADVVYCPRPCCQLPVMQEPGCTMGICSSCNFAFCTLCRLTYHGVSPCKVTAEKLMDLRNEYLQADEANKRLLDQRYGKRVIQKALEEMESKEWLEKNSKSCPCCGTPIEKLDGCNKMTCTGCMQYFCWICMGSLSRANPYKHFNDPGSPCFNRLFYAVDVDDDIWEDEVED	less than 2 fold	1.6 fold	less than 2 fold	–	–
C′-ARA54: C-terminal region (amino acids 361-474) of ARA54 (protein, Homo sapien, C-terminal region (amino acids 361-474) of ARA54) RNEYLQADEANKRLLDQRYGKRVIQKALEEMESKEWLEKNSKSCPCCGTPIEKLDGCNKMTCTGCMQYFCWICMGSLSRANPYKHFNDPGSPCFNRLFYAVDVDDDIWEDEVED	–	–	–	little effect	only marginally repressed
